Laboratory results: PMC4142144 (Molecular cell, 2014)

What was measured:
mono-ubiquitin = mono-ubiquitin (UniProt P0CG48 1-76); assay: crystal structure
SEC-MALS = target: the molecule itself; assay: SEC-MALS

B1: 2CARD^RIG-I(E52A) (domain or fragment, human, UniProt O95786 1-188, looked up)
chain: MTTEQRRSLQAFQDYIRKTLDPTYILSYMAPWFREEEVQYIQAEKNNKGPMAAATLFLKFLLELQEEGWFRGFLDALDHAGYSGLYEAIESWDFKKIEKLEEYRLLLKRLQPEFKTRIIPTDIISDLSECLINQECEEILQICSTKGMMAGAEKLVECLLRSDKENWPKTLKLALEKERNKFSELWIV
binding result (mono-ubiquitin): binds

B2: 2CARD^RIG-I(E52A)-CARD^MAVS(KKK) fusion protein, 42 aa linker (other)
chain: MTTEQRRSLQAFQDYIRKTLDPTYILSYMAPWFREEEVQYIQAEKNNKGPMAAATLFLKFLLELQEEGWFRGFLDALDHAGYSGLYEAIESWDFKKIEKLEEYRLLLKRLQPEFKTRIIPTDIISDLSECLINQECEEILQICSTKGMMAGAEKLVECLLRSDKENWPKTLKLALEKERNKFSELWIVMPFAEDKTYKYICRNFSNFCNVKVVKILPYLPCLTARDQDRLRATCTLSGNRDTLWHLFNTLQRRPGWVEYFIAALRGCKLVDLADEVASVYQSYQP
stoichiometry N (SEC-MALS): 4
